Assay results: patent US20030233681, “ICE1, a regulator of cold induced transcriptome and freezing tolerance in plants” (Arizona Bd of Regents/Behalf of Univ. of Arizona, published 2003)

Experiments:
ICE1 [1] = target: T1, ICE1 (Arabidopsis thaliana, UniProt Q9LSE2 SEQ:1-494); experiment: EMSA; several complexes; weaker competitor than MYC-2; settings: tags: His tag N-terminal (pET14b, E. coli BL21 DE3); label: 32P
T1 sequence: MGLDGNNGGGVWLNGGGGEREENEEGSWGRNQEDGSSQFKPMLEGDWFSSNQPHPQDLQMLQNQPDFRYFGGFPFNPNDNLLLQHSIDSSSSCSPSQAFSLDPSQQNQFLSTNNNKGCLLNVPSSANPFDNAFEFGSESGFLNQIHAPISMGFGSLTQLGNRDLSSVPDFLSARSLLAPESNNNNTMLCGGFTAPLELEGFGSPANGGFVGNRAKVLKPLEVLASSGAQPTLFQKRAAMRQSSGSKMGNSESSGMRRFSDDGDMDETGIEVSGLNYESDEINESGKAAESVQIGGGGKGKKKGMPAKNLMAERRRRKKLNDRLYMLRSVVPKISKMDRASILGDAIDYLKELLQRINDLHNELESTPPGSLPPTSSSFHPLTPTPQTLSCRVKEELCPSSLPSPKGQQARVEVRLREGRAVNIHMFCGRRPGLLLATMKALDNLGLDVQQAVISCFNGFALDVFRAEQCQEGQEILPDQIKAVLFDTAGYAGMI
Procedure: (§1) For competition experiments, unlabeled competitors were incubated with the His-ICE1 fusion protein on ice for 30 min prior to the addition of labeled probes.
(§2) ICE1 has a basic helix-loop-helix (bHLH) domain and its amino acid sequence in the basic region is highly conserved with other bHLH proteins (FIG. 4B), and therefore may recognize promoter elements similar to the DNA-binding sites for known bHLH proteins. These proteins recognize DNA with the consensus sequence CANNTG (Meshi and Iwabuchi 1995). In the promoter region of CBF3, there are five potential MYC-recognition elements within a 1 kb region upstream of the transcription initiation site (Shinwari et al. 1998). These possible MYC-recognition sites, designated MYC-1 through MYC-5, fall into four groups because MYC-3 and MYC-5 share the same consensus sequence, CATTTG (FIG. 6A). Thus, MYC-3 was used to represent both MYC-3 and MYC-5. To determine whether ICE1 binds to these MYC-recognition sites in the CBF3 promoter, we expressed and purified His-ICE1 fusion protein from E. coli. Four DNA fragments encompassing each possible MYC-recognition site were used for interaction with His-ICE1 in an electrophoresis mobility shift assay (EMSA).
(§3) The MYC-2 fragment formed one major complex with ICE1, while the other DNA fragments formed several complexes with ICE1. […]

ICE1 [2] = target: T1, ICE1; experiment: competition; unlabeled competitor with putative MYB site does not compete; 50-250 fold excess; settings: tags: His tag N-terminal (pET14b, E. coli BL21 DE3)
Procedure: (§4) The wild type and mutant ICE1 cDNAs were amplified by RT-PCR and inserted into NdeI and BamHI sites in the expression vector pET14b (Novagen). Wild-type and mutant His-ICE1 fusion proteins were prepared from E. coli cells (BL21 DE3) according to the instruction manual of His-Bind Buffer Kit (Novagen). The electrophoresis mobility shift assay (EMSA) was carried out as described (Hao et al. 1998). The following double-stranded oligonucleotides listed in FIG. 6A (MYC-1, MYC-2, MYC-3, MYC-4 and MYC-5) were used as probes and competitors in EMSAs. Nucleotide sequences P1 (−949 to −930) and P2 (−909 to −890) were also used as competitors. P1 contains a putative MYB-recognition site. […] DNA probes were end-labeled with [γ-³²P]dCTP using the Klenow fragment and purified through a Sephadex G-50 column. The labeled probes (ca 0.02 pmol) were incubated for 20 min at room temperature with 2.3 μg of purified His-ICE1 fusion protein in 1×binding buffer (Hao et a.1998) supplemented with 20 pmol poly(dI-dC). The resulting DNA-protein complexes were resolved by electrophoresis on a 6% polyacrylamide gel in 0.5×TBE buffer and visualized by autoradiography. For competition experiments, unlabeled competitors were incubated with the His-ICE1 fusion protein on ice for 30 min prior to the addition of labeled probes. […]

ice1 (R236H) = target: T2, ice1 (R236H) (Arabidopsis thaliana, UniProt Q9LSE2 SEQ:1-494, R236H); experiment: EMSA; R236H mutant still binds; settings: tags: His tag N-terminal (pET14b, E. coli BL21 DE3); label: 32P
T2 sequence: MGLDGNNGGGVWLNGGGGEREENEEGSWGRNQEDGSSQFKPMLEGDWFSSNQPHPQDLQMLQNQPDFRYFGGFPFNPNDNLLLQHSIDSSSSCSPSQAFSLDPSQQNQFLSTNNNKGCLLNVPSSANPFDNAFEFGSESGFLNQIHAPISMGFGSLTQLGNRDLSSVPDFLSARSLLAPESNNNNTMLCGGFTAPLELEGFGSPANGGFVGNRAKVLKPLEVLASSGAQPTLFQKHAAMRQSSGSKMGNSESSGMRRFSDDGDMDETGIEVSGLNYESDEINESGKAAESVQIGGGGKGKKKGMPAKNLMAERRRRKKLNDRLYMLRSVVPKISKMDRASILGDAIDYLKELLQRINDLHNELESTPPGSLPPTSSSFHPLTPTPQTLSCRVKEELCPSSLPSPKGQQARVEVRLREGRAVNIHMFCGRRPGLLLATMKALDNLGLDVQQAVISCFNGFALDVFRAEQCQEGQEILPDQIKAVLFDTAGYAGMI
Procedure: as §4

ICE1 [3] = target: T1, ICE1; experiment: EMSA; one major complex; strongest of the sites by competition; poly(dI-dC), room temperature 20 min; settings: tags: His tag N-terminal (pET14b, E. coli BL21 DE3); label: 32P
Procedure: as §4

ICE1 [4] = target: T1, ICE1; experiment: EMSA; several complexes; weaker competitor than MYC-2; also represents MYC-5; settings: tags: His tag N-terminal (pET14b, E. coli BL21 DE3); label: 32P
Procedure: as §1, §2, §3

ICE1 [5] = target: T1, ICE1; experiment: competition; unlabeled non-related competitor does not compete; 50-250 fold excess; settings: tags: His tag N-terminal (pET14b, E. coli BL21 DE3)
Procedure: as §4

B1: MYC-1 (dsDNA)
DNA 1: CATTTTACAATTGCTTCGCT
DNA 2: AGCGAAGCAATTGTAAAATG
ICE1 [1]
  binding result: binds

B2: MYC-4 (dsDNA)
DNA 1: ACAATTACAACTGCATGCTT
DNA 2: AAGCATGCAGTTGTAATTGT
ICE1 [1]
  binding result: binds

B3: P1 (-949 to -930) (dsDNA)
DNA 1: ATATAATTAACTACTTTTAT
DNA 2: ATAAAAGTAGTTAATTATAT
ICE1 [2]
  binding result: no binding

B4: MYC-2 (dsDNA)
DNA 1: CTCTGGACACATGGCAGATC
DNA 2: GATCTGCCATGTGTCCAGAG
ice1 (R236H)
  binding result: binds
ICE1 [3]
  binding result: binds

B5: MYC-3 (dsDNA)
DNA 1: AATGTTACATTTGATCATTC
DNA 2: GAATGATCAAATGTAACATT
ICE1 [4]
  binding result: binds

B6: P2 (-909 to -890) (dsDNA)
DNA 1: GACTCGTTTCGCGATCCGAT
DNA 2: ATCGGATCGCGAAACGAGTC
ICE1 [5]
  binding result: no binding
